In US20220281951A1 (ACCELERON PHARMA, published 2022):
Read-outs that look alike come from different tables or passages of the source.

How the values were obtained:
GDF-11 [1] = molecular target: T1, GDF-11 (UniProt O95390 299-407); test: cell-based or functional assay
T1 sequence (looked up): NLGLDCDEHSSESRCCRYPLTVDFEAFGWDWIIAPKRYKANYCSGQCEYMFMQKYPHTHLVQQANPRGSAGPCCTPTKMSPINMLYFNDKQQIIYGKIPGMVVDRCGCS

Activin A [2] = molecular target: T2, Activin A (UniProt P08476 311-426); test: cell-based or functional assay
T2 sequence (looked up): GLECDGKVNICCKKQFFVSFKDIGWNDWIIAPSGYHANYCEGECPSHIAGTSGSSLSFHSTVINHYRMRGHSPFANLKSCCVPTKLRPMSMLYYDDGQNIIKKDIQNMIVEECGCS

GDF-11 [3] = molecular target: T1, GDF-11; test: cell-based or functional assay; remark: listed apart in the source
Activin A [4] = molecular target: T2, Activin A; test: cell-based or functional assay; remark: listed apart in the source
GDF8 = molecular target: T3, GDF8 (UniProt O14793 267-375); test: BiaCore SPR; ActRIIB-Fc captured by anti-hFc antibody, ligand injected
T3 construct: also called myostatin; Growth and Differentiation Factor-8
T3 sequence (looked up): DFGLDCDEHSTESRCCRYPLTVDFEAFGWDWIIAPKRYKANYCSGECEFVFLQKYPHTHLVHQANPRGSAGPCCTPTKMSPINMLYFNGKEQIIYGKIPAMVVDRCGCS
Procedure: The ActRIIB-Fc variants or wild-type protein were captured onto the system using an anti-hFc antibody. Ligands were injected and flowed over the captured receptor proteins.

B1: ActRIIb-hFc (R64, 20-132) (Fc fusion)
chain: GRGEAETRECIYYNANWELERTNQSGLERCEGEQDKRLHCYASWRNSSGTIELVKKGCWLDDFNCYDRQECVATEENPQVYFCCCEGNFCNERFTHLPEAGGPEVTYEPPPTAGGGTHTCPPCPAPELLGGPSVFLFPPKPKDTLMISRTPEVTCVVVDVSHEDPEVKFNWYVDGVEVHNAKTKPREEQYNSTYRVVSVLTVLHQDWLNGKEYKCKVSNKALPVPIEKTISKAKGQPREPQVYTLPPSREEMTKNQVSLTCLVKGFYPSDIAVEWESNGQPENNYKTTPPVLDSDGSFFLYSKLTVDKSRWQQGNVFSCSVMHEALHNHYTQKSLSLSPGK
IC50 (ng/mL), A-204 reporter gene assay, conditioned media (GDF-11 [1]): 87 ng/mL | IC50 (ng/mL), A-204 reporter gene assay, conditioned media (Activin A [2]): 32 ng/mL

B2: ActRIIb-hFc (R64, 22-131) (Fc fusion)
chain: GEAETRECIYYNANWELERTNQSGLERCEGEQDKRLHCYASWRNSSGTIELVKKGCWLDDFNCYDRQECVATEENPQVYFCCCEGNFCNERFTHLPEAGGPEVTYEPPPTGGGTHTCPPCPAPELLGGPSVFLFPPKPKDTLMISRTPEVTCVVVDVSHEDPEVKFNWYVDGVEVHNAKTKPREEQYNSTYRVVSVLTVLHQDWLNGKEYKCKVSNKALPVPIEKTISKAKGQPREPQVYTLPPSREEMTKNQVSLTCLVKGFYPSDIAVEWESNGQPENNYKTTPPVLDSDGSFFLYSKLTVDKSRWQQGNVFSCSVMHEALHNHYTQKSLSLSPGK
IC50 (ng/mL), A-204 reporter gene assay, conditioned media (GDF-11 [3]): 71 ng/mL | IC50 (ng/mL), A-204 reporter gene assay, conditioned media (Activin A [4]): 100 ng/mL

B3: ActRIIb-hFc (R64, 23-131) (Fc fusion)
chain: EAETRECIYYNANWELERTNQSGLERCEGEQDKRLHCYASWRNSSGTIELVKKGCWLDDFNCYDRQECVATEENPQVYFCCCEGNFCNERFTHLPEAGGPEVTYEPPPTGGGTHTCPPCPAPELLGGPSVFLFPPKPKDTLMISRTPEVTCVVVDVSHEDPEVKFNWYVDGVEVHNAKTKPREEQYNSTYRVVSVLTVLHQDWLNGKEYKCKVSNKALPVPIEKTISKAKGQPREPQVYTLPPSREEMTKNQVSLTCLVKGFYPSDIAVEWESNGQPENNYKTTPPVLDSDGSFFLYSKLTVDKSRWQQGNVFSCSVMHEALHNHYTQKSLSLSPGK
IC50 (ng/mL), A-204 reporter gene assay, conditioned media (GDF-11 [3]): 60 ng/mL | IC50 (ng/mL), A-204 reporter gene assay, conditioned media (Activin A [4]): 43 ng/mL

B4: ActRIIb-hFc (R64, 24-131) (Fc fusion)
chain: AETRECIYYNANWELERTNQSGLERCEGEQDKRLHCYASWRNSSGTIELVKKGCWLDDFNCYDRQECVATEENPQVYFCCCEGNFCNERFTHLPEAGGPEVTYEPPPTGGGTHTCPPCPAPELLGGPSVFLFPPKPKDTLMISRTPEVTCVVVDVSHEDPEVKFNWYVDGVEVHNAKTKPREEQYNSTYRVVSVLTVLHQDWLNGKEYKCKVSNKALPVPIEKTISKAKGQPREPQVYTLPPSREEMTKNQVSLTCLVKGFYPSDIAVEWESNGQPENNYKTTPPVLDSDGSFFLYSKLTVDKSRWQQGNVFSCSVMHEALHNHYTQKSLSLSPGK
IC50 (ng/mL), A-204 reporter gene assay, conditioned media (GDF-11 [3]): 69 ng/mL | IC50 (ng/mL), A-204 reporter gene assay, conditioned media (Activin A [4]): 105 ng/mL

B5: ActRIIb-hFc (R64, 20-131) (Fc fusion)
chain: GRGEAETRECIYYNANWELERTNQSGLERCEGEQDKRLHCYASWRNSSGTIELVKKGCWLDDFNCYDRQECVATEENPQVYFCCCEGNFCNERFTHLPEAGGPEVTYEPPPTGGGTHTCPPCPAPELLGGPSVFLFPPKPKDTLMISRTPEVTCVVVDVSHEDPEVKFNWYVDGVEVHNAKTKPREEQYNSTYRVVSVLTVLHQDWLNGKEYKCKVSNKALPVPIEKTISKAKGQPREPQVYTLPPSREEMTKNQVSLTCLVKGFYPSDIAVEWESNGQPENNYKTTPPVLDSDGSFFLYSKLTVDKSRWQQGNVFSCSVMHEALHNHYTQKSLSLSPGK
IC50 (ng/mL), A-204 reporter gene assay, conditioned media (GDF-11 [3]): 183 ng/mL | IC50 (ng/mL), A-204 reporter gene assay, conditioned media (Activin A [4]): 201 ng/mL | IC50 (ng/mL), A-204 reporter gene assay, conditioned media (GDF-11 [1]): 120 ng/mL | IC50 (ng/mL), A-204 reporter gene assay, conditioned media (Activin A [2]): 44 ng/mL

B6: ActRIIb-hFc (R64, 21-131) (Fc fusion)
chain: RGEAETRECIYYNANWELERTNQSGLERCEGEQDKRLHCYASWRNSSGTIELVKKGCWLDDFNCYDRQECVATEENPQVYFCCCEGNFCNERFTHLPEAGGPEVTYEPPPTGGGTHTCPPCPAPELLGGPSVFLFPPKPKDTLMISRTPEVTCVVVDVSHEDPEVKFNWYVDGVEVHNAKTKPREEQYNSTYRVVSVLTVLHQDWLNGKEYKCKVSNKALPVPIEKTISKAKGQPREPQVYTLPPSREEMTKNQVSLTCLVKGFYPSDIAVEWESNGQPENNYKTTPPVLDSDGSFFLYSKLTVDKSRWQQGNVFSCSVMHEALHNHYTQKSLSLSPGK
IC50 (ng/mL), A-204 reporter gene assay, conditioned media (GDF-11 [3]): 121 ng/mL | IC50 (ng/mL), A-204 reporter gene assay, conditioned media (Activin A [4]): 325 ng/mL

B7: ActRIIb-hFc (R64, 20-134) (Fc fusion)
chain: GRGEAETRECIYYNANWELERTNQSGLERCEGEQDKRLHCYASWRNSSGTIELVKKGCWLDDFNCYDRQECVATEENPQVYFCCCEGNFCNERFTHLPEAGGPEVTYEPPPTAPTGGGTHTCPPCPAPELLGGPSVFLFPPKPKDTLMISRTPEVTCVVVDVSHEDPEVKFNWYVDGVEVHNAKTKPREEQYNSTYRVVSVLTVLHQDWLNGKEYKCKVSNKALPVPIEKTISKAKGQPREPQVYTLPPSREEMTKNQVSLTCLVKGFYPSDIAVEWESNGQPENNYKTTPPVLDSDGSFFLYSKLTVDKSRWQQGNVFSCSVMHEALHNHYTQKSLSLSPGK
kon (GDF8): 369000 M⁻¹ s⁻¹

B8: ActRIIb-hFc (R64, 20-128) (Fc fusion)
chain: GRGEAETRECIYYNANWELERTNQSGLERCEGEQDKRLHCYASWRNSSGTIELVKKGCWLDDFNCYDRQECVATEENPQVYFCCCEGNFCNERFTHLPEAGGPEVTYEPGGGTHTCPPCPAPELLGGPSVFLFPPKPKDTLMISRTPEVTCVVVDVSHEDPEVKFNWYVDGVEVHNAKTKPREEQYNSTYRVVSVLTVLHQDWLNGKEYKCKVSNKALPVPIEKTISKAKGQPREPQVYTLPPSREEMTKNQVSLTCLVKGFYPSDIAVEWESNGQPENNYKTTPPVLDSDGSFFLYSKLTVDKSRWQQGNVFSCSVMHEALHNHYTQKSLSLSPGK
IC50 (ng/mL), A-204 reporter gene assay, conditioned media (GDF-11 [1]): 130 ng/mL | IC50 (ng/mL), A-204 reporter gene assay, conditioned media (Activin A [2]): 158 ng/mL
